In patent US20250145724A1 (TWIST BIOSCIENCE, published 2025):

Assays:
hA1 receptor = molecular target: T1, hA1 receptor (human, UniProt P30542 1-326); assay: In vitro specificity, flow cytometry MFI at 100 nM IgG on hA1
T1 construct: whole, on cells
T1 sequence (looked up): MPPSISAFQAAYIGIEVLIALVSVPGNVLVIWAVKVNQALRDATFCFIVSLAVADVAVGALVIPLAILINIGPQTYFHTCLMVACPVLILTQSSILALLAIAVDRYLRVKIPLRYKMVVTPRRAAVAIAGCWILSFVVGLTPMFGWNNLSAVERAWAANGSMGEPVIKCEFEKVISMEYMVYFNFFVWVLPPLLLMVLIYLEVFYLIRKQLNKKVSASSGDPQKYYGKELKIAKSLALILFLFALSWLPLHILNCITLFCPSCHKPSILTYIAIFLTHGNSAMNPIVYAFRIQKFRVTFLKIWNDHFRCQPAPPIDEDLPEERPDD

hA2b receptor = molecular target: T2, hA2b receptor (human, UniProt P29275 1-332); assay: In vitro specificity, flow cytometry MFI at 100 nM IgG on hA2b
T2 construct: whole, on cells; also called adenosine A2B receptor
T2 sequence (looked up): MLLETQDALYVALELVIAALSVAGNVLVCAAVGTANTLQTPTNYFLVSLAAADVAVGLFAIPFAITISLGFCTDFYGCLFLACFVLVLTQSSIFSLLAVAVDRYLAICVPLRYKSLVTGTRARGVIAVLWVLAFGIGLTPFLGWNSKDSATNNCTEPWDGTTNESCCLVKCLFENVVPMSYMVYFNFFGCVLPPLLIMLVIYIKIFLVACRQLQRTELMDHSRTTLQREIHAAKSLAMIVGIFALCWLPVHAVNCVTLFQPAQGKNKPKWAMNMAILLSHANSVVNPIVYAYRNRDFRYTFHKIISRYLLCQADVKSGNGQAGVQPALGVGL

hA3 receptor = molecular target: T3, hA3 receptor (human, UniProt P0DMS8 1-318); assay: In vitro specificity, flow cytometry MFI at 100 nM IgG on hA3
T3 construct: whole, on cells
T3 sequence (looked up): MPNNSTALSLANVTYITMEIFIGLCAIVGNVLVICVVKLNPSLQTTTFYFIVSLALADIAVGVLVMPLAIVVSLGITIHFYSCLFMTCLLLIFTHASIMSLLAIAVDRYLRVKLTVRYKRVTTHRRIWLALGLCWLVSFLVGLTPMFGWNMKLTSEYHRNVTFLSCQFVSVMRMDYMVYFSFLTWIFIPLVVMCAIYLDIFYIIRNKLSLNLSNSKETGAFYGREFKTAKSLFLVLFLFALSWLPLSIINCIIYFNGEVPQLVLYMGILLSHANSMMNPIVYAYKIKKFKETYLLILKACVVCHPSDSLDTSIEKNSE

Measured: binding result

B1: A2A-81 (antibody, V domains shown)
VH: QVQLQESGPGLVKPSGTLSLTCAVSGGSISSSNWWSWVRQPPGKGLEWIGEIYHSGSTNYNPSLKSRVTISVDKSKNQFSLKLGSVTAADTAVYYCAREVVSGLYGTIFDYWGQGTLVTVSS
VL: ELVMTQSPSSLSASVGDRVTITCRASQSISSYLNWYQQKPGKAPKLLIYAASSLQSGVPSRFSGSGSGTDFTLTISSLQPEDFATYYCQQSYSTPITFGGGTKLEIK
notes: Tested as IgG
no binding (tested: 100 nM): hA1 receptor | hA2b receptor | hA3 receptor
